{"source": "IntAct's records for PubMed 19379692", "parents": {"B1": {"name": "SET domain-containing protein 3 (Saccharomyces cerevisiae), P36124 (parent)", "chain": "MSVPNSKEQSLLDDASTLLLFSKGKKRAEEASKIGSKTDTIEHDESHEREKKGAIEMAAAALATASTVSLPLKKATEQSAAEAATSTAAKEETENQPQKQPQWPVPDSYIVDPDAGIITCICDLNDDDGFTIQCDHCNRWQHAICYGIKDIGMAPDDYLCNSCDPREVDINLARKIQQERINVKTVEPSSSNNSASNKNNGRDRASSTTISDVGDSFSTDQDNTNHRDKRRKRNPSNNSIDSKNESASVNSSDGLTSMPKKKEHFLSAKDAYGAIYLPLKDNVFKSDLIEPFLNKHMDDNWVIQYPHKTFKSVSIEVKPYADIAYSRTYPGFTKLGVYLKKDCIKGDFIQEILGELDFYKNYLTDPRNHYRIWGTAKRRVIFHSHWPIYIDARLSGNSTRYLRRSCQPNVELVTIKLQDTDNRNDKSSGRKSSRIKFVLRALRDISEDEELYIKWQWDSKHPILKLIKGMTIDSLDDLERYGLINSVETILSNGECGCGNNSKDCYLLKVKRYAQSLYKSVKSRGKMNNRYKLNEILNQYNCKKRREPPILHRLEEKAQNTIERAPILLNNFYRQKFLNRNNGPKIPQKNTIDSTNNPDDIAKPFKFALFAQHSSNISVPKKNETSEKPLIITKSTDYDESHITNIEELPIPVLLPINKTSRQTANDVEESQSKNEHKLSRTPSLSNFNKELSKEAQHSQAKTKEIMTEASVNSRRESTPESIMHLSDFSSSQLHSKKKLSFADYRKKLLK"}}, "data": [{"variants_of": "B1", "details": "with h4_yeast HHF1, P02309", "values": [{"variant": "W140A", "effect of a mutation on the interaction": "decreasing interaction"}]}]}
